Source: patent US20040018971A1 (published 2004)

Legend:
HLA-A*0301 [1] = target: HLA-A*0301 (human); experiment: inhibition of 125I probe peptide binding to purified HLA
HLA-A*6801 = HLA-A*6801 (human); experiment: as above
HLA-A*0201 = target: T1, HLA-A*0201 (human); experiment: competition with 125I-labelled standard peptide 941.01 ([..]) on purified HLA, gel filtration
T1 construct: also called HLA-A2.1

HLA-A*0301 [2] = target: HLA-A*0301 (human); experiment: inhibition of 125I-labelled standard peptide binding to purified HLA, gel filtration
HLA-A*1101 [3] = target: HLA-A*1101 (human); experiment: as above
HLA-A*1101 [4] = target: HLA-A*1101 (human); experiment: inhibition of 125I-labelled probe peptide binding to purified HLA-A*1101, gel filtration
HLA-B*0702 = HLA-B*0702 (human); experiment: competition vs 125I-labeled standard peptide, purified HLA
HLA-B*5401 = HLA-B*5401 (human); experiment: as above
HLA-B*5101 = HLA-B*5101 (human); experiment: as above
HLA-B*5301 = HLA-B*5301 (human); experiment: as above

HVVPWDQLFK (synthetic analog peptide) [Her2/neu.478.V2K10] was tested, and the IC50 (HLA-A*0301 [1]) was 180 nM and the IC50 (HLA-A*6801) was 8.9 nM.

For GICLTSTVQL (Synthetic peptide) [HER2/neu A02 supermotif peptide, position 787, 10 amino acids], the relative binding ratio (HLA-A*0201) was 0.0004 ratio (IC50 of standard peptide / IC50 of test peptide).

For SSEDCQSLTR (Synthetic A3 supermotif peptide) [HER2/neu peptide, position 208, 10 amino acids], the relative binding ratio (HLA-A*0301 [2]) was -0.0002 ratio (IC50 of standard peptide / IC50 of test peptide) and the relative binding ratio (HLA-A*1101 [3]) was 0.002 ratio (IC50 of standard peptide / IC50 of test peptide).

With QVRQVPLQR (Synthetic A3 supermotif peptide) [HER2/neu peptide, position 90, 9 amino acids] the relative binding ratio (HLA-A*0301 [2]) was 0.0029 ratio (IC50 of standard peptide / IC50 of test peptide) and the relative binding ratio (HLA-A*1101 [3]) was 0.0005 ratio (IC50 of standard peptide / IC50 of test peptide).

RILKETELR (Synthetic A3 supermotif peptide) [HER2/neu peptide, position 713, 9 amino acids] was tested, and the relative binding ratio (HLA-A*0301 [2]) was 0.0007 ratio (IC50 of standard peptide / IC50 of test peptide) and the relative binding ratio (HLA-A*1101 [3]) was 0.0038 ratio (IC50 of standard peptide / IC50 of test peptide).

GASCVTACPY [HER2/neu peptide, position 292, 10 amino acids] was tested, and the “relative binding ratio (IC50 of standard peptide / IC50 of test peptide)” value (HLA-A*1101 [4]) was 0.0001 relative binding ratio.

In the case of PAGATLERPK (Synthetic A3 supermotif peptide) [HER2/neu peptide, position 1162, 10 amino acids], the relative binding ratio (HLA-A*0301 [2]) is reported as -0.0002 ratio (IC50 of standard peptide / IC50 of test peptide) and the relative binding ratio (HLA-A*1101 [3]) is reported as -0.0002 ratio (IC50 of standard peptide / IC50 of test peptide).

B1: Her2/neu.760.F1, 8-mer (peptide)
peptide: FPKANKEI
notes: 8-mer analog of the HER2/neu peptide starting at position 760; same label as the 9-mer in r54
B1 was tested, and the IC50 (HLA-B*0702) was 0.16 nM, the IC50 (HLA-B*5401) was 3120 nM and the IC50 (HLA-B*5101) was 2500 nM.

For GASPGGLREL (Synthetic peptide) [HER2/neu A02 supermotif peptide, position 131, 10 amino acids], the relative binding ratio (HLA-A*0201) was 0.0001 ratio (IC50 of standard peptide / IC50 of test peptide).

In the case of VLIAHNQVR (Synthetic A3 supermotif peptide) [HER2/neu peptide, position 84, 9 amino acids], the relative binding ratio (HLA-A*0301 [2]) is reported as 0.0033 ratio (IC50 of standard peptide / IC50 of test peptide) and the relative binding ratio (HLA-A*1101 [3]) is reported as 0.0007 ratio (IC50 of standard peptide / IC50 of test peptide).

With GVGSPYVSR [HER2/neu peptide, position 776, 9 amino acids] the “relative binding ratio (IC50 of standard peptide / IC50 of test peptide)” value (HLA-A*1101 [4]) was 0.0066 relative binding ratio.

With FSRMARDPQR [HER2/neu peptide, position 976, 10 amino acids] the “relative binding ratio (IC50 of standard peptide / IC50 of test peptide)” value (HLA-A*1101 [4]) was 0.001 relative binding ratio.

B2: Her2/neu.649.I9 (peptide)
peptide: SPLTSIISI
notes: 9-mer analog of the HER2/neu peptide starting at position 649
B2 showed an IC50 (HLA-B*0702) of 86 nM, an IC50 (HLA-B*5401) of 217 nM and an IC50 (HLA-B*5301) of 3440 nM. For the same binder, the IC50 (HLA-B*5101) was 275 nM.

With GGAVENPEY [HER2/neu peptide, position 1188, 9 amino acids] the “relative binding ratio (IC50 of standard peptide / IC50 of test peptide)” value (HLA-A*1101 [4]) was 0.0001 relative binding ratio.

For NIQEFAGCK (Synthetic A3 supermotif peptide) [HER2/neu peptide, position 360, 9 amino acids], the relative binding ratio (HLA-A*0301 [2]) was 0.0002 ratio (IC50 of standard peptide / IC50 of test peptide) and the relative binding ratio (HLA-A*1101 [3]) was 0.0036 ratio (IC50 of standard peptide / IC50 of test peptide).

For FSPAFDNLY [HER2/neu peptide, position 1213, 9 amino acids], the “relative binding ratio (IC50 of standard peptide / IC50 of test peptide)” value (HLA-A*1101 [4]) was 0.0002 relative binding ratio.

With ESMPNPEGR [HER2/neu peptide, position 280, 9 amino acids] the “relative binding ratio (IC50 of standard peptide / IC50 of test peptide)” value (HLA-A*1101 [4]) was -0.0002 relative binding ratio.

With GAYSLTLQGL (Synthetic peptide) [HER2/neu A02 supermotif peptide, position 439, 10 amino acids] the relative binding ratio (HLA-A*0201) was 0.003 ratio (IC50 of standard peptide / IC50 of test peptide).

For GLPREYVNAR [HER2/neu peptide, position 549, 10 amino acids], the “relative binding ratio (IC50 of standard peptide / IC50 of test peptide)” value (HLA-A*1101 [4]) was 0.0003 relative binding ratio.

For GLGISWLGLR [HER2/neu peptide, position 447, 10 amino acids], the “relative binding ratio (IC50 of standard peptide / IC50 of test peptide)” value (HLA-A*1101 [4]) was 0.0001 relative binding ratio.

In the case of GICELHCPAL (Synthetic peptide) [HER2/neu A02 supermotif peptide, position 262, 10 amino acids], the relative binding ratio (HLA-A*0201) is reported as 0.0005 ratio (IC50 of standard peptide / IC50 of test peptide).

In the case of GAMPNQAQMR [HER2/neu peptide, position 704, 10 amino acids], the “relative binding ratio (IC50 of standard peptide / IC50 of test peptide)” value (HLA-A*1101 [4]) is reported as 0.0041 relative binding ratio.

In the case of ETLEEITGY [HER2/neu peptide, position 401, 9 amino acids], the “relative binding ratio (IC50 of standard peptide / IC50 of test peptide)” value (HLA-A*1101 [4]) is reported as 0.0002 relative binding ratio.

GAVENPEYL (Synthetic peptide) [HER2/neu A02 supermotif peptide, position 1189, 9 amino acids] was tested, and the relative binding ratio (HLA-A*0201) was 0.0002 ratio (IC50 of standard peptide / IC50 of test peptide).

In the case of GMSYLEDVR [HER2/neu peptide, position 832, 9 amino acids], the “relative binding ratio (IC50 of standard peptide / IC50 of test peptide)” value (HLA-A*1101 [4]) is reported as 0.0002 relative binding ratio.

VARCPSGVK (Synthetic A3 supermotif peptide) [HER2/neu peptide, position 597, 9 amino acids] was tested, and the relative binding ratio (HLA-A*0301 [2]) was 0.01 ratio (IC50 of standard peptide / IC50 of test peptide) and the relative binding ratio (HLA-A*1101 [3]) was -0.0002 ratio (IC50 of standard peptide / IC50 of test peptide).

In the case of GSGAFGTVY [HER2/neu peptide, position 727, 9 amino acids], the “relative binding ratio (IC50 of standard peptide / IC50 of test peptide)” value (HLA-A*1101 [4]) is reported as 0.0001 relative binding ratio.

GLACHQLCAR [HER2/neu peptide, position 508, 10 amino acids] was tested, and the “relative binding ratio (IC50 of standard peptide / IC50 of test peptide)” value (HLA-A*1101 [4]) was 0.0001 relative binding ratio.
